Series [1] can be described thus: Perhydrolase activity remaining bound to hair, ABTS assay. It counts as binding, human. How it is done: Ten mg of human hair was submerged in 2 mL of a binding solution containing 50 μg/mL of the Thermotoga maritima perhydrolase targeted to hair via the hair binding peptide HC263 (C277S-HC263; SEQ ID NO: 288; also referred to herein as “HC1121”) in 50 mM pH 7.2 potassium phosphate buffer containing 5% of the test surfactant. The test surfactants were two nonionic surfactants: TWEEN®-20 (Sigma, St Louis, Mo.), and TRITON®-X 100 (Aldrich, St Louis, Mo.), and two ionic surfactants: CHEMBETAINE™ CAD (Cocamidopropyl betaine; Lubrizol, Wickliffe, Ohio) and RHODAPEX® ES-2K (sodium laurel ether sulfate; Rhodia Novecare, Cranbury, N.J.).
Hair was incubated in the binding solution at room temperature (˜22° C.) with gentle agitation for 30 minutes, at which time the solution was removed by aspiration and the hair rinsed with 1% TWEEN®-20 in 50 mM pH 7.2 potassium phosphate buffer. The hair was removed from the tube, blotted dry with paper towel, and transferred to a new set of tubes. The hair was rinsed once with 1% TWEEN®-20 in 50 mM pH 7.2 potassium phosphate buffer and then rinsed three times with 50 mM pH 7.2 potassium phosphate buffer. Perhydrolase activity remaining bound to the hair was determined by the ABTS assay.
The ABTS assay was performed as follows: hair samples treated as described above were transferred to new 2-mL microcentrifuge tubes (Eppendorf Protein LoBind; Eppendorf North America, Hauppauge, N.Y.) To each tube was added 480 μL of PAH buffer (50 mM potassium phosphate, pH 7.2), 14 μL of 39% hydrogen peroxide (Sigma 3410), and 6 μL triacetin (Sigma-Aldrich W200700). The perhydrolase reaction was allowed to proceed for 10 minutes at room temperature (˜22-25° C.). The reaction was stopped by diluting aliquots 10×, 100× and 1000× with 10 mM phosphoric acid. For detection 50 μL of 1 M acetic acid, 50 μL of 40 mg/mL potassium iodide, and 50 μL of 4 mM ABTS (2,2′-azino-bis(3-ethylbenzthiazoline-6-sulphonic acid; Sigma, St Louis, Mo.) were added to 50 μL of the above dilutions. Color was allowed to develop for 10 minutes and read in a spectrophotometer at 405 nm. Values from no-enzyme controls were subtracted to yield values attributable only to enzyme activity. A standard curve of OD 405 nm vs PAA concentration in ppm yielded a conversion factor of 8.75, such that an OD 405 nm of 1.0 corresponded to approximately 8.75 ppm PAA. This value was then multiplied by the appropriate dilution to arrive at the PAA concentration in the perhydrolase reaction.
The Thermotoga maritima perhydrolase targeted to hair via the hair binding peptide HC263 (C277S-HC263; SEQ ID NO: 288) was diluted to 50 μg/mL in a solution of 5% PEG-80 sorbitan laurate in 100 mM citrate-phosphate buffer adjusted to pH 4.9, pH 5.5, pH 6.0, or pH 7.0. Ten mg of human hair was added to 2 mL of the above formulations and incubated with gentle agitation for 5 minutes at room temperature to allow enzyme binding to hair. A no-enzyme control sample was included with each pH. After binding, the binding solution was removed by aspiration and the hair was washed with 2 mL of 1% TWEEN®-20 in 50 mM pH 7.2 potassium phosphate buffer. The hair was removed from the tube, blotted dry with paper towel, and transferred to a new set of tubes. The hair was rinsed once with 1% TWEEN®-20 in 50 mM pH 7.2 potassium phosphate buffer and then rinsed three time with 50 mM pH 7.2 potassium phosphate buffer. Perhydrolase activity remaining bound to the hair was determined by the ABTS assay. The results are given as ppm PAA produced at 10 minutes (after subtraction of the no-enzyme control values)
The Thermotoga maritima perhydrolase targeted to hair via the hair binding peptide HC263 (C277S-HC263; SEQ ID NO: 288) was diluted to 50 μg/mL in a solution of 5% PEG-80 sorbitan laurate in 100 mM citrate-phosphate buffer adjusted to pH 6.0. […]

A short description of series [2]: PAA generation with different perhydrolases and substrates, HPLC Karst assay. It counts as biochemical. As to the method:
HC1121 is a CE-7 class carbohydrate esterase from Thermotoga maritima (C2775-HC263; SEQ ID NO: 288), and HC1169 is an aryl esterase from M. smegmatis (ArE-HC263; SEQ ID NO: 323). Both enzymes were tested for their perhydrolytic activity with substrates triacetin or propylene glycol diacetate (PGDA, Aldrich 528072) and hydrogen peroxide between pH 5 and pH 7.2. Enzyme free reactions for some reaction conditions were run to determine the non-enzymatic generation of peracetic acid as well. At the end of reaction, the reaction was quenched by acidification 10 or 25 fold with 100 mM H3PO4. The quenched samples were filtered using a NANOSEP® MF centrifugal device (30K Molecular Weight Cutoff (MWCO), Pall Life Sciences, Ann Arbor, Mich., P/N OD030C35) by centrifugation for 6 min at 12,000 rpm. The filtrates were assayed by HPLC Karst assay in duplicates to determine the amount of peracetic acid (PAA) generated at those reaction conditions.

Where [3] appears, read: 10 μg/mL enzyme, 250 mM triacetin, 100 mM H2O2, 20% LUBRIDERM® in pH 7.2, 100 mM phosphate buffer, 60 min.
The mark [4] stands for this setting: 50 μg/mL, pH 6.0, binding 1 min, at 10 minutes.

B1: C277S-HC263: C277S variant of Thermotoga maritima perhydrolase fused via a flexible linker to hair-binding domain HC263 (protein)
chain: MAFFDLPLEELKKYRPERYEEKDFDEFWEETLAESEKFPLDPVFERMESHLKTVEAYDVTFSGYRGQRIKGWLLVPKLEEEKLPCVVQYIGYNGGRGFPHDWLFWPSMGYICFVMDTRGQGSGWLKGDTPDYPEGPVDPQYPGFMTRGILDPRTYYYRRVFTDAVRAVEAAASFPQVDQERIVIAGGSQGGGIALAVSALSKKAKALLCDVPFLCHFRRAVQLVDTHPYAEITNFLKTHRDKEEIVFRTLSYFDGVNFAARAKIPALFSVGLMDNISPPSTVFAAYNYYAGPKEIRIYPYNNHEGGGSFQAVEQVKFLKKLFEKGGPGSGGAGSPGSAGGPGSPSAQSQLPDKHSGLHERAPQRYGPEPEPEPEPIPEPPKEAPVVIEKPKPKPKPKPKPPAHDHKNQKETHQRHAAGSGGGGSPHHHHHH
Consider B1, for which the “Perhydrolase Activity Retained on Hair, ppm PAA” value is 455 ppm in series [1] (50 μg/mL enzyme bound 30 min in 5% CHEMBETAINE™ CAD), 315 ppm in series [1] (50 μg/mL enzyme bound 30 min in 5% RHODAPEX® ES-2K), 1540 ppm in series [1] (50 μg/mL enzyme bound 30 min in 5% TRITON®-X 100) and 2126 ppm in series [1] (50 μg/mL enzyme bound 30 min in 5% TWEEN®-20). Also, the “ppm PAA” value in series [1] (50 μg/mL, 5% PEG-80 sorbitan laurate pH 6.0, binding 10 min, PAA at 10 minutes) came to 581 ppm. Further, the “Perhydrolase Activity Deposited on Hair, ppm PAA” value in series [1] (50 μg/mL, 5% PEG-80 sorbitan laurate pH 6.0, binding time 0.5 min) is 954 ppm; in series [1] (50 μg/mL, 5% PEG-80 sorbitan laurate, binding 5 min, pH 4.9), 437 ppm; in series [1] (binding 5 min, pH 5.5) it was 1312 ppm; in series [1] (binding 5 min, pH 6.0), 1137 ppm; in series [1] (binding 5 min, pH 7.0), 385 ppm; in series [1] (pH 6.0, binding time 1 min), 962 ppm. Also, the “Perhydrolase Activity Deposited on Hair, ppm PAA” value was determined as 988 ppm in series [1] (pH 6.0, binding time 2 min) and 1093 ppm in series [1] (pH 6.0, binding time 5 min). Also, the “values obtained (ABTS assay)” value in series [1] (bound in 5% CHEMBETAINE™ CAD) is on record as 0.52; in series [1] (bound in 5% RHODAPEX® ES-2K), 0.36; in series [1] (bound in 5% TRITON®-X 100), 1.76; in series [1] (bound in 5% TWEEN®-20) it was 2.43. The PAA in series [2] (setting [3]) was found to be 4451 ppm; in series [2] (50 μg/mL enzyme, 100 mM triacetin, 250 mM H2O2, pH 5, 50 mM citrate buffer, 5 min), 277 ppm; in series [2] (50 μg/mL enzyme, 100 mM triacetin, 250 mM H2O2, pH 5.6, 50 mM citrate buffer, 5 min), 1222 ppm; in series [2] (50 μg/mL enzyme, 100 mM triacetin, 250 mM H2O2, pH 6, 50 mM citrate buffer, 5 min), 2350 ppm; in series [2] (50 μg/mL enzyme, 100 mM triacetin, 250 mM H2O2, pH 6.6, 50 mM citrate-phosphate buffer, 5 min) it was 4067 ppm; in series [2] (50 μg/mL enzyme, 100 mM triacetin, 250 mM H2O2, pH 7, 50 mM pyrophosphate buffer, 5 min), 4832 ppm.

B2: SEQ ID NO: 323: S54V variant of the aryl esterase from Mycobacterium smegmatis fused to hair binding domain HC263 via a flexible linker (protein)
chain: MAKRILCFGDSLTWGWVPVEDGAPTERFAPDVRWTGVLAQQLGADFEVIEEGLVARTTNIDDPTDPRLNGASYLPSCLATHLPLDLVIIMLGTNDTKAYFRRTPLDIALGMSVLVTQVLTSAGGVGTTYPAPKVLVVSPPPLAPMPHPWFQLIFEGGEQKTTELARVYSALASFMKVPFFDAGSVISTDGVDGIHFTEANNRDLGVALAEQVRSLLGPGSGGAGSPGSAGGPGSPSAQSQLPDKHSGLHERAPQRYGPEPEPEPEPIPEPPKEAPVVIEKPKPKPKPKPKPPAHDHKNQKETHQRHAAGSGGGGSPHHHHHH
Turning to B2, the “ppm PAA” value in series [1] (50 μg/mL, binding 1 min, hair with no PAA treatment) stood at 269 ppm; in series [1] (50 μg/mL, binding 1 min, hair with one PAA treatment (0.2% PAA, 1 hr)) it was 526 ppm; in series [1] (50 μg/mL, binding 1 min, hair with two PAA treatments), 702 ppm. For the same molecule, in series [1] (setting [4]), the “OD 405nm” value was 0.237. Besides, in series [1] (setting [4]), the Peracetic acid is recorded as 207 ppm. Moreover, the PAA is 4158 ppm in series [2] (10 μg/mL enzyme, 250 mM PGDA, 100 mM H2O2, pH 5, 100 mM citrate buffer, 30 min); 4482 ppm in series [2] (10 μg/mL enzyme, 250 mM PGDA, 100 mM H2O2, pH 5.6, 100 mM citrate buffer, 30 min); 4647 ppm in series [2] (10 μg/mL enzyme, 250 mM PGDA, 100 mM H2O2, pH 6, 100 mM citrate buffer, 30 min); 4608 ppm in series [2] (10 μg/mL enzyme, 250 mM PGDA, 100 mM H2O2, pH 6.6, 100 mM phosphate buffer, 30 min); 4450 ppm in series [2] (10 μg/mL enzyme, 250 mM PGDA, 100 mM H2O2, pH 7.2, 100 mM phosphate buffer, 30 min); 3433 ppm in series [2] (setting [3]). Moreover, the PAA in series [2] (20 μg/mL enzyme, 250 mM PGDA, 100 mM H2O2, pH 5, 100 mM citrate buffer, 30 min) came out at 4140 ppm; in series [2] (20 μg/mL enzyme, 250 mM PGDA, 100 mM H2O2, pH 5.6, 100 mM citrate buffer, 30 min), 4403 ppm; in series [2] (20 μg/mL enzyme, 250 mM PGDA, 100 mM H2O2, pH 6, 100 mM citrate buffer, 30 min), 4609 ppm; in series [2] (20 μg/mL enzyme, 250 mM PGDA, 100 mM H2O2, pH 6.6, 100 mM phosphate buffer, 30 min), 4526 ppm; in series [2] (20 μg/mL enzyme, 250 mM PGDA, 100 mM H2O2, pH 7.2, 100 mM phosphate buffer, 30 min), 4726 ppm; in series [2] (20 μg/mL enzyme, 250 mM triacetin, 100 mM H2O2, pH 5, 100 mM citrate buffer, 30 min) it was 3680 ppm. Moreover, the PAA in series [2] (20 μg/mL enzyme, 250 mM triacetin, 100 mM H2O2, pH 5.6, 100 mM citrate buffer, 30 min) came to 4429 ppm; in series [2] (20 μg/mL enzyme, 250 mM triacetin, 100 mM H2O2, pH 6, 100 mM citrate buffer, 30 min), 4616 ppm; in series [2] (20 μg/mL enzyme, 250 mM triacetin, 100 mM H2O2, pH 6.6, 100 mM phosphate buffer, 30 min), 4488 ppm; in series [2] (20 μg/mL enzyme, 250 mM triacetin, 100 mM H2O2, pH 7.2, 100 mM phosphate buffer, 30 min), 4812 ppm.

The values above are taken from patent US20130171217A1, “ENZYMATIC PERACID GENERATION FOR USE IN SKIN CARE PRODUCTS” (E I DU PONT DE NEMOURS AND COMPANY, priority 2010, published 2013).
